Among the data in PMC7195491 (2020) are Kd values, retold here.

Some results are limits rather than exact numbers.

The chains are these.
T1: DIP-α (Drosophila melanogaster)
T1 chain: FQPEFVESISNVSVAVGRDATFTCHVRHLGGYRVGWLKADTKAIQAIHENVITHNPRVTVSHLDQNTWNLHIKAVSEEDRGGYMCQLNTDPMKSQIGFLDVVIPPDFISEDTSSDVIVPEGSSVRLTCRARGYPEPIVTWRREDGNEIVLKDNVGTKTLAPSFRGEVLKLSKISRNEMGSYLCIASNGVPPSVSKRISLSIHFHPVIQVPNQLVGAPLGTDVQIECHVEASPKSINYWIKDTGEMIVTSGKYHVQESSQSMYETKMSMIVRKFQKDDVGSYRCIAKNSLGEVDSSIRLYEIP

B1: Dpr11 K31V (domain or fragment)
chain: PYLDGYATSNVTTQIGTHAYLPCRVKQLGNKSVSWIRLRDGHILTVDRAVFIADQRFLAIKQPDKYWTLQIKYVQARDAGSYECQVSTEPVVSARVQLQVVVPRTEILGEPDRYVKAGSNVVLRCIVRGALEPPTFIMWYHGAEQLAADSRRHRTQLDPNLPEASGEGQSTIGSLIIESAKKRDTGNYTCSPSNSPSATVT
B2: Dpr11 (domain or fragment)
chain: PYLDGYATSNVTTQIGTHAYLPCRVKQLGNKSVSWIRLRDGHILTVDRAVFIADQRFLAIKQPDKYWTLQIKYVQARDAGSYECQVSTEPKVSARVQLQVVVPRTEILGEPDRYVKAGSNVVLRCIVRGALEPPTFIMWYHGAEQLAADSRRHRTQLDPNLPEASGEGQSTIGSLIIESAKKRDTGNYTCSPSNSPSATVT
B3: Dpr11 K31V,E29Q (domain or fragment)
chain: PYLDGYATSNVTTQIGTHAYLPCRVKQLGNKSVSWIRLRDGHILTVDRAVFIADQRFLAIKQPDKYWTLQIKYVQARDAGSYECQVSTQPVVSARVQLQVVVPRTEILGEPDRYVKAGSNVVLRCIVRGALEPPTFIMWYHGAEQLAADSRRHRTQLDPNLPEASGEGQSTIGSLIIESAKKRDTGNYTCSPSNSPSATVT
B4: Dpr10 V31K Q29E (domain or fragment)
chain: YQRQSVSNNNHNNAEAKPTHAPPSHYPHGHKWNEPYFDLTMPRNITSLVGKSAYLGCRVKHLGNKTVAWIRHRDLHILTVGTYTYTTDQRFQTSYHRDIDEWTLQIKWAQQRDAGVYECQISTEPKRSYSVNLNIVDLIDAETSDIMQQYYNDDAFYIAENRVYQSSNDEFAGMFGPIQTVAVPTATILGGPDLYVDKGSTINLTCIIKFSPEPPTHIFWYHQDKVLSEETSGGRLKFKTIKSEETKSILLIYDADLLHSGKYSCYPSNTEIASIR
B5: Dpr10 V31K (domain or fragment)
chain: YQRQSVSNNNHNNAEAKPTHAPPSHYPHGHKWNEPYFDLTMPRNITSLVGKSAYLGCRVKHLGNKTVAWIRHRDLHILTVGTYTYTTDQRFQTSYHRDIDEWTLQIKWAQQRDAGVYECQISTQPKRSYSVNLNIVDLIDAETSDIMQQYYNDDAFYIAENRVYQSSNDEFAGMFGPIQTVAVPTATILGGPDLYVDKGSTINLTCIIKFSPEPPTHIFWYHQDKVLSEETSGGRLKFKTIKSEETKSILLIYDADLLHSGKYSCYPSNTEIASIR
B6: Dpr10 (domain or fragment)
chain: YQRQSVSNNNHNNAEAKPTHAPPSHYPHGHKWNEPYFDLTMPRNITSLVGKSAYLGCRVKHLGNKTVAWIRHRDLHILTVGTYTYTTDQRFQTSYHRDIDEWTLQIKWAQQRDAGVYECQISTQPVRSYSVNLNIVDLIDAETSDIMQQYYNDDAFYIAENRVYQSSNDEFAGMFGPIQTVAVPTATILGGPDLYVDKGSTINLTCIIKFSPEPPTHIFWYHQDKVLSEETSGGRLKFKTIKSEETKSILLIYDADLLHSGKYSCYPSNTEIASIR

In the assay the target is T1, DIP-α. Briefly: SPR. In general terms: In SPR one partner is held on a chip, and binding of the other changes the refractive index at the surface.
By Kd is commonly meant the equilibrium constant for the complex coming apart. Low readings indicate a tighter complex, high ones a looser complex. B1 displayed an equilibrium dissociation constant (Kd) above 300 µM.
As for B2, the figure is above 500 µM.
Next, B3: above 300 µM; B4: 29.2 µM; B5: 11.3 µM.
Turning to B6, the equilibrium dissociation constant (Kd) came to 1.3 µM.
